Experimental data published in publication PMC10897489.

What was measured:
FXR1 215-360 (KH1-KH2) = FXR1 215-360 (KH1-KH2) (UniProt P51114 215-360); assay: ITC; ITC: 50 mM sodium phosphate pH 7.5, 150 mM NaCl, 0.5 mM TCEP, 25 °C; conditions: protein: recombinant; tags: His or GST (not specified which)
[1] = molecular target: SARS-CoV-2 N protein (NCAP_SARS2) (SARS-CoV-2, UniProt P0DTC9 1-419); assay: ITC; conditions: protein: recombinant; chain copies: 2

B1: NF1 RNA (ssRNA)
RNA: GGAUCAUUUUGUUGGACUCAAUUUCAACUCUAACUUUAACUUUGCAUUGGUUGGACACCU
For B1, the binding result (FXR1 215-360 (KH1-KH2)) was “no binding” and the Kd [1] was 380 ± 40 nM.
